Experiments:
[1] = target: T1, Human red blood cell proteasomes (Homo sapiens, UniProt P28072+P28074+Q99436); test: Activation of fluorogenic peptide hydrolysis by the proteasome in the presence of REG variants; format: biochemical; details: for Stimulation of cleavage (x-fold) LLE: substrate LLE-βNA (PGPH site); for Stimulation of cleavage (x-fold) LLVY: substrate LLVY-MCA (chymotrypsin-like site); for Stimulation of cleavage (x-fold) LRR: substrate LRR-MCA (trypsin-like site); for Stimulation of hydrolysis of LLVY-MCA and LLE-βNA: summary of Table 1
T1 construct: Human red blood cell proteasomes; from tissue; host or cells: human red blood cells
Procedure: Human red blood cell proteasomes (170 ng) were mixed with increasing amounts of purified REG variants. The reactions were started by adding 50 μl of 200 μMscu-LLVY-MCA, Boc-LRR-MCA, or Boc-LLE-βNA in 10 mM Tris, pH 7.5. After a 10 min incubation, the reaction was quenched with 200μl of cold 100% ethanol, and the released MCA or βNA ws measured fluometrically. Each data point represents the mean of three measurements from a single experiment. […] REGα (▪), REGγ(□), REGγ(K188E) or REGγ(K188D) (●), REGγ(K188H) (∘), REGγ(K188Q) or REGγ(K188N) (Δ), REGγ(K188A) (♦). The data for REGγ(K188E) and REGγ(K188D) and for REGγ(K188Q) and REGγ(K188N) were combined since their activities were indistinguishable.
Because each positive variant identified in the previous example included a mutation at Lys188, site-directed mutagenesis was used to generate a series of amino acid substitutions at this residue. Twelve mutants were constructed in which Lys188 of REGγ was changed to Ala, Arg, Asn, Asp, Cys, Gln, Glu, His, Ile, Phe, Pro, or Ser. Wild-type REGγ and the Lys 188 variants were expressed in E. coli, purified, and the activation specificity of each protein was measured using the diagnostic peptides LLVY (SEQ ID NO:1)-MCA, LRR-MCA, and LLE-βNA. Except for the K188R variant, all Lys 188 mutants stimulated the hydrolysis of LRR-MCA by the proteasome to the same extent or slightly better than wild-type REGγ. Substitution of negatively-charged Glu or Asp for the positively-charged Lys188 produced mutants with activation properties almost identical to REGα.
To determine the degree to which the activation specificity of REGγ(K188E/D) variants matches that of REGα, proteasomal cleavage of a series of fluorogenic peptides was measured in the presence of each activator.

[2] = Heptamer stability on rechromatography (Superdex 200 size exclusion column); format: physicochemical; details: for Percentage that remained heptamers on rechromatography: Superdex 200 second gel filtration; for Percent heptamer: after second gel filtration; for Heptamers dissociated during the second gel filtration: Superdex 200
Excerpt: To examine the effect of Lys188 substitution on REGγ heptamer stability, the wildtype and Lys 188 variant heptamers were rechromatographed on the Superdex 200 (26/60) size exclusion column used for purification. […] Replacement of Lys 188 by Pro or Phe severely affected the stability of REGγ heptamer.

proteasome [3] = target: T2, proteasome (Homo sapiens, UniProt P28072+P28074+Q99436); test: REGα(N146Y)/REGβ(N135Y) competition assay for relative proteasome affinity; format: binding; details: in terms of REGα(N146Y)/REGβ(N135Y) competition; wild-type REGγ 100
Excerpt: As a measure of the relative affinities of REGγ and the REGγLys188 mutants for the proteasome, a competition assay was used. See Li et al. (2000), The Proteasome Activator 11S REG or PA28: Chimeras Implicate Carboxyl-Terminal Sequences in Oligomerization and Proteasome Binding But Not in the Activation of Specific Proteasome Catalytic Subunits. J. Mol. Biol. 299:641-54. All REGγLys188 mutants were relatively resistant to REGα(N146Y)/REGβ(N135Y) competition with apparent proteasome affinities varying from 40% to 90% that of wild-type REGγ.

[4] = target: proteasome (chymotrypsin-like activity) (Homo sapiens, UniProt P28072+P28074+Q99436); test: Activity screen of E. coli lysates expressing mutagenized REGγ for stimulation of LLVY-MCA cleavage; format: biochemical; details: 170 ng proteasome, 100 μM LLVY-MCA, 10-minute incubation; 1400 colonies
Procedure: Error-prone PCR was used to introduce random mutation into the REGγ DNA. See Zhang et al., (1998)Idnetification of an Activation Region in the Proteasome Activator REGα. Proc. Natl. Acad. Sci. 95:2807-2811. The PCR products were inserted into pET26(b) through NdeI/BamHI sites. The resulting plasmid library was transformed into BL21(DE3) cells. About 60% of the isolated colonies contained a single-site mutation.
Transformants were picked and grown at 37° C. in LB containing 25 μg/ml kanamycin. Protein expression was induced with 0.8 mM IPTG for 2 hours at 30° C. Cells were collected by centrifugation and lysed with 10 mM Tris-HCL, pH 7.5, 0.5% Triton X-100, and 0.3 mg/ml polymixin B sulfate. Aliquots were incubated with 170 ng proteasome and 100 μM LLVY (SEQ ID NO:1)-MCA. After a 10-minute incubation, reactions were terminated with 200 μl of ethanol and fluorescence was measured. See Li et al (2000), The Proteasome Activator 11S REG or PA28: Chimeras Implicate Carboxyl-Terminal Sequences in Oligomerization and Proteasome Binding But Not in the Activation of Specific Proteasome Catalytic Subunits, J. Mol. Biol. 299:641-54.

proteasome [5] = target: T2, proteasome; test: Proteasomal hydrolysis of natural peptides P21 and BBC1 (HPLC); format: biochemical; details: 21-residue peptide P21; result in words
Procedure: Proteasomal hydrolysis of a 21 -residue peptide (P21) and a 49-residue peptide (BBC1) were prepared as described by Zhang et al. (1998), Proteasome Activation by REG Molecules Lacking Homolog-specific Inserts, J. Biol. Chem. 273:9501-09. Digestion products were applied to a C18 HPLC column and separated with a gradient of 0-45% acetonitrile containing 0.1% trifluoroacetic acid. To identify the products derived from P21, fractions were collected manually, concentrated, and subjected to mass spectrometry.

[6] = target: T1, Human red blood cell proteasomes; test: Activation of fluorogenic peptide hydrolysis by the proteasome in the presence of REG variants; format: biochemical
proteasomes = proteasomes (Homo sapiens, UniProt P28072+P28074+Q99436); test: Proteasomal degradation of fluorescein-labeled polyQ peptides (molecular exclusion chromatography); format: biochemical; details: proteasome + activator, 5 hr incubation
Procedure: The following peptides were synthesized using routine peptide synthesis:
Each peptide was incubated for 5 hr with proteasomes alone, proteasomes+REGγ, proteasome+REGγ(K188E) or proteasomes+REGα/β. Degradation was assayed by molecular exclusion chromatography using fluorescein as a signal (see FIG. 2). The degradation products were identified by HPLC-MS (FIG. 3). […] By contrast, in the presence of REGγ(K188E) the various polyQ peptides were degraded 5 to 10-fold faster.

γK188F: mutant REGγ in which Lys188 was changed to Phe
Stimulation of cleavage (x-fold) LLE [1]: 4 x-fold
Stimulation of cleavage (x-fold) LLVY [1]: 4 x-fold
Stimulation of cleavage (x-fold) LRR [1]: 13 x-fold
Percentage that remained heptamers on rechromatography [2]: remained monomers or dimers
Percent heptamer [2]: Dimer
Relative affinity for proteasome (proteasome [3]): 40

(F102I, K188N): REGγ double mutant F102I, K188N isolated from the error-prone PCR library
Colony screen for stimulation of LLVY-MCA cleavage [4]: positive

γK188H: mutant REGγ in which Lys188 was changed to His
Stimulation of cleavage (x-fold) LLE [1]: 4 x-fold
Stimulation of cleavage (x-fold) LLVY [1]: 5 x-fold
Stimulation of cleavage (x-fold) LRR [1]: 14 x-fold
Percentage that remained heptamers on rechromatography [2]: remained fully heptameric
Percent heptamer [2]: >95%
Relative affinity for proteasome (proteasome [3]): 50

γK188R: mutant REGγ in which Lys188 was changed to Arg
Stimulation of cleavage (x-fold) LLE [1]: 0.7 x-fold
Stimulation of cleavage (x-fold) LLVY [1]: 0.7 x-fold
Stimulation of cleavage (x-fold) LRR [1]: 10 x-fold
Percentage that remained heptamers on rechromatography [2]: remained fully heptameric
Percent heptamer [2]: >95%
Relative affinity for proteasome (proteasome [3]): 75

γK188P: mutant REGγ in which Lys188 was changed to Pro
Stimulation of cleavage (x-fold) LLE [1]: 1 x-fold
Stimulation of cleavage (x-fold) LLVY [1]: 1 x-fold
Stimulation of cleavage (x-fold) LRR [1]: 12 x-fold
Heptamers dissociated during the second gel filtration [2]: About 50%
Percent heptamer [2]: 50%
Relative affinity for proteasome (proteasome [3]): 40

γK188Q: mutant REGγ in which Lys188 was changed to Gln
Stimulation of cleavage (x-fold) LLE [1]: 5 x-fold
Stimulation of cleavage (x-fold) LLVY [1]: 5 x-fold
Stimulation of cleavage (x-fold) LRR [1]: 14 x-fold
Percent heptamer [2]: 80%
Relative affinity for proteasome (proteasome [3]): 75

γK188D: mutant REGγ in which Lys188 was changed to Asp
Activation properties compared with REGα ([1]; small fluorogenic peptides, result in words): virtually identical to REGα
Stimulation of cleavage (x-fold) LLE [1]: 9 x-fold
Stimulation of cleavage (x-fold) LLVY [1]: 14 x-fold
Stimulation of cleavage (x-fold) LRR [1]: 15 x-fold
Heptamers dissociated during the second gel filtration [2]: More than half
Percent heptamer [2]: 50%
Relative affinity for proteasome (proteasome [3]): 90
Hydrolysis of P21 by the proteasome (proteasome [5]): markedly increased
Stimulation of cleavage (x-fold) AAF-MCA ([6]; substrate AAF-MCA): 4 x-fold
Stimulation of cleavage (x-fold) DEVD-MCA ([6]; substrate DEVD(SEQ ID NO: 8)-MCA): 9 x-fold
Stimulation of cleavage (x-fold) FSR-MCA ([6]; substrate FSR-MCA): 7 x-fold
Stimulation of cleavage (x-fold) IEGR-MCA ([6]; substrate IEGR(SEQ ID NO: 5)-MCA): 2 x-fold
Stimulation of cleavage (x-fold) IETD-MCA ([6]; substrate IETD(SEQ ID NO: 6)-MCA): 26 x-fold
Stimulation of cleavage (x-fold) LGHD-MCA ([6]; substrate LGHD(SEQ ID NO: 7)-MCA): 11 x-fold
Stimulation of cleavage (x-fold) LY-MCA ([6]; substrate LY-MCA): 3 x-fold
Stimulation of cleavage (x-fold) VLK-MCA ([6]; substrate VLK-MCA): 6 x-fold
Stimulation of cleavage (x-fold) YVAD-MCA ([6]; substrate YVAD(SEQ ID NO: 9)-MCA): 8 x-fold

γK188N: mutant REGγ in which Lys188 was changed to Asn
Stimulation of cleavage (x-fold) LLE [1]: 5 x-fold
Stimulation of cleavage (x-fold) LLVY [1]: 5 x-fold
Stimulation of cleavage (x-fold) LRR [1]: 14 x-fold
Percent heptamer [2]: 80%
Relative affinity for proteasome (proteasome [3]): 75
Colony screen for stimulation of LLVY-MCA cleavage [4]: positive

(L71P, K188E): REGγ double mutant L71P, K188E isolated from the error-prone PCR library
Colony screen for stimulation of LLVY-MCA cleavage [4]: positive

γKI88S: mutant REGγ in which Lys188 was changed to Ser
Stimulation of cleavage (x-fold) LLE [1]: 3 x-fold
Stimulation of cleavage (x-fold) LLVY [1]: 3 x-fold
Stimulation of cleavage (x-fold) LRR [1]: 14 x-fold
Percentage that remained heptamers on rechromatography [2]: remained fully heptameric
Percent heptamer [2]: >95%
Relative affinity for proteasome (proteasome [3]): 50

γKl88C: mutant REGγ in which Lys188 was changed to Cys
Stimulation of cleavage (x-fold) LLE [1]: 5 x-fold
Stimulation of cleavage (x-fold) LLVY [1]: 6 x-fold
Stimulation of cleavage (x-fold) LRR [1]: 13 x-fold
Stimulation of hydrolysis of LLVY-MCA and LLE-βNA [1]: 6 fold
Percent heptamer [2]: 70%
Relative affinity for proteasome (proteasome [3]): 60

(L38V, K188N): REGγ double mutant L38V, K188N isolated from the error-prone PCR library
Colony screen for stimulation of LLVY-MCA cleavage [4]: positive

γK188A: mutant REGγ in which Lys188 was changed to Ala
Stimulation of cleavage (x-fold) LLE [1]: 6 x-fold
Stimulation of cleavage (x-fold) LLVY [1]: 6 x-fold
Stimulation of cleavage (x-fold) LRR [1]: 13 x-fold
Stimulation of hydrolysis of LLVY-MCA and LLE-βNA [1]: 6 fold
Percent heptamer [2]: 60%
Relative affinity for proteasome (proteasome [3]): 60

γK188I: mutant REGγ in which Lys188 was changed to Ile
Stimulation of cleavage (x-fold) LLE [1]: 3 x-fold
Stimulation of cleavage (x-fold) LLVY [1]: 2 x-fold
Stimulation of cleavage (x-fold) LRR [1]: 12 x-fold
Stimulation of hydrolysis of LLVY-MCA and LLE-βNA [1]: 2 fold
Percentage that remained heptamers on rechromatography [2]: remained fully heptameric
Percent heptamer [2]: >95%
Relative affinity for proteasome (proteasome [3]): 60

REGα/β: REGα/β hetero-heptamer proteasome activator
% Degraded, substrate F1-EPQPQ (proteasomes): 55%
% Degraded, substrate F1-KSQPQ (proteasomes): 85%
% Degraded, substrate F1-QHQ (proteasomes): 80%
% Degraded, substrate F1-QPQ (proteasomes): 85%
% Degraded, substrate F1-QQQ (proteasomes): 85%
